IntAct's records for PubMed 33053321

B1: Signal recognition particle subunit SRP54 (Homo sapiens), P61011 (parent)
chain: MVLADLGRKITSALRSLSNATIINEEVLNAMLKEVCTALLEADVNIKLVKQLRENVKSAIDLEEMASGLNKRKMIQHAVFKELVKLVDPGVKAWTPTKGKQNVIMFVGLQGSGKTTTCSKLAYYYQRKGWKTCLICADTFRAGAFDQLKQNATKARIPFYGSYTEMDPVIIASEGVEKFKNENFEIIIVDTSGRHKQEDSLFEEMLQVANAIQPDNIVYVMDASIGQACEAQAKAFKDKVDVASVIVTKLDGHAKGGGALSAVAATKSPIIFIGTGEHIDDFEPFKTQPFISKLLGMGDIEGLIDKVNELKLDDNEALIEKLKHGQFTLRDMYEQFQNIMKMGPFSQILGMIPGFGTDFMSKGNEQESMARLKKLMTIMDSMNDQELDSTDGAKVFSKQPGRIQRVARGSGVSTRDVQELLTQYTKFAQMVKKMGGIKGLFKGGDMSKNVSQSQMAKLNQQMAKMMDPRVLHHMGGMAGLQSMMRQFQQGAAGNMKGMMGFNNM
partner: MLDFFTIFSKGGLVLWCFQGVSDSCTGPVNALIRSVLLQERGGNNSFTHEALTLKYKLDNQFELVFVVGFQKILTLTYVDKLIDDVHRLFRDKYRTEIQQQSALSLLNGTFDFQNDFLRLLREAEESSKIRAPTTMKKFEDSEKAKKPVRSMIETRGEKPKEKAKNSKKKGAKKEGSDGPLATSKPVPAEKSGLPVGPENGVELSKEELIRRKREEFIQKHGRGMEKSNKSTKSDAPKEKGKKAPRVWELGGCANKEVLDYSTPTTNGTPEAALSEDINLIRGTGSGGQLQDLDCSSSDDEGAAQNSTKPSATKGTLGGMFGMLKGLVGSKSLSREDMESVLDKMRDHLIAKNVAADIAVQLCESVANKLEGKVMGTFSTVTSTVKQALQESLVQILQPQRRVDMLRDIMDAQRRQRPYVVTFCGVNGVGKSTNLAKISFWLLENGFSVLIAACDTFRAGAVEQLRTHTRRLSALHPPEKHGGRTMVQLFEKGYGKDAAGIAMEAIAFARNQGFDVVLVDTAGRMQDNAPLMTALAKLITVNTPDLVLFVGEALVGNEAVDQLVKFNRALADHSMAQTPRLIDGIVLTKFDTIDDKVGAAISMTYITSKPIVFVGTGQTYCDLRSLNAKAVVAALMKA
B2: Signal recognition particle subunit SRP54 (Saccharomyces cerevisiae), P20424 (parent)
chain: MVLADLGKRINSAVNNAISNTQDDFTTSVDVMLKGIVTALLESDVNIALVSKLRNNIRSQLLSENRSEKSTTNAQTKKLIQKTVFDELCKLVTCEGSEEKAFVPKKRKTNIIMFVGLQGSGKTTSCTKLAVYYSKRGFKVGLVCADTFRAGAFDQLKQNAIRARIPFYGSYTETDPAKVAEEGINKFKKEKFDIIIVDTSGRHHQEEELFQEMIEISNVIKPNQTIMVLDASIGQAAEQQSKAFKESSDFGAIILTKMDGHARGGGAISAVAATNTPIIFIGTGEHIHDLEKFSPKSFISKLLGIGDIESLFEQLQTVSNKEDAKATMENIQKGKFTLLDFKKQMQTIMKMGPLSNIAQMIPGMSNMMNQVGEEETSQKMKKMVYVLDSMTKEELESDGRMFIEEPTRMVRVAKGSGTSVFEVEMILMQQQMMARMAQTATQQQPGAPGANARMPGMPNMPGMPNMPGMPNMPGMPKVTPQMMQQAQQKLKQNPGLMQNMMNMFGGGMGGGMGGGMPDMNEMMKMMQDPQMQQMAKQFGMG
partner: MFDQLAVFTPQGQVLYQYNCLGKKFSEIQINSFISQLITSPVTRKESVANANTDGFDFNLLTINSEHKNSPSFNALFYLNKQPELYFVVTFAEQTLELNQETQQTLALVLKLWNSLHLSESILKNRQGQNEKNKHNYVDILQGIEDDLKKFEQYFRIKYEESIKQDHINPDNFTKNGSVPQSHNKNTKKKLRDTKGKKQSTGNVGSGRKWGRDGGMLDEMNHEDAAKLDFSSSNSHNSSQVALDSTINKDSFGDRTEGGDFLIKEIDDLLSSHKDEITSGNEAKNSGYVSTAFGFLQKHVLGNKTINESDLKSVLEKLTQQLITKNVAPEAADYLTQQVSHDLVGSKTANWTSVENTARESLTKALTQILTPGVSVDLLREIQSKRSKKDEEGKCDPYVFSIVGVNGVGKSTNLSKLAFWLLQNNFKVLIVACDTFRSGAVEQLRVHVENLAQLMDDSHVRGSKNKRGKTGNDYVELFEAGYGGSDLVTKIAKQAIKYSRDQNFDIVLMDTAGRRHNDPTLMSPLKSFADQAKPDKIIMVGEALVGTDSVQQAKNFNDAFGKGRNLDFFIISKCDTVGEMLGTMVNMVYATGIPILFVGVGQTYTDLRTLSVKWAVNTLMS

Variants of: B1
Conditions: with srpra_human SRPRA

Row | Variant | effect of a mutation on the interaction
1 | G226E | disrupting interaction strength
2 | T115A | decreasing interaction strength

Variants of: B2
Conditions: with srpr_yeast SRP101, P32916

Row | Variant | effect of a mutation on the interaction
3 | G234E | disrupting interaction strength
